PMC9506655, “Comparative structural insight into the unidirectional catalysis of ornithine carbamoyltransferases from Psychrobacter sp. PAMC 21119” (PLoS ONE, 2022)

How the values were obtained:
Ps_cOTC [1] = molecular target: T1, Ps_cOTC (Psychrobacter sp. PAMC 21119, UniProt Z9QBN3KKL3); experiment: label-free thermal shift (Tycho NT.[…], intrinsic fluorescence); type: binding; settings: with 50 mM CP (no shift by NVA alone); 20 mM Tris-HCl pH 8.0; 15 min incubation at 295 K
T1 construct: full-length arcB product, N-terminal His6 (pET-28a NdeI) kept; expressed in E. coli BL21(DE3); homotrimer in solution
T1 sequence (Z9QBN3KKL3 1-336): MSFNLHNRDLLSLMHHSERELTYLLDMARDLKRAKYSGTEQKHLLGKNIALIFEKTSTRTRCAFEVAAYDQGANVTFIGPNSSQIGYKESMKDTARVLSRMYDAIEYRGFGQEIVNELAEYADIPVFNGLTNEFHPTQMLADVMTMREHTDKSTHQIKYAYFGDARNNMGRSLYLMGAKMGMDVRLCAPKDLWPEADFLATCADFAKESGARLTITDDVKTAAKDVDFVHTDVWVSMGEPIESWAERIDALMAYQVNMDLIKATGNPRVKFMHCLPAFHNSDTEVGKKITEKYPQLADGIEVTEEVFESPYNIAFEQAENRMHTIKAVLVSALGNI

Ps_aOTC [2] = molecular target: T2, Ps_aOTC (Psychrobacter sp. PAMC 21119, UniProt A0ACD6BAY5); experiment: as above; type: binding; settings: with 5 mM CP (no shift by NVA alone); 20 mM Tris-HCl pH 8.0; 15 min incubation at 295 K
T2 construct: full-length argF product, N-terminal His6 (pET-28a) kept; expressed in E. coli BL21(DE3); homotrimer in solution

[3] = molecular target: catabolic ornithine carbamoyltransferase from Psychrobacter sp. PAMC 21119 (Psychrobacter sp. PAMC 21119); experiment: AUC; sedimentation velocity, 20 mM Tris-HCl pH 8.0, 200 mM NaCl, 20°C, 42,000 RPM, SEDFIT
[4] = molecular target: catabolic ornithine carbamoyltransferase from Psychrobacter sp. PAMC 21119 (Psychrobacter sp. PAMC 21119); experiment: SEC; Superdex 200 10/300 GL, 20 mM Tris-HCl pH 8.0, NaCl 300, 500 and 1,000 mM, protein 1 mg/mL, column calibrated with standards
[5] = molecular target: catabolic ornithine carbamoyltransferase from Psychrobacter sp. PAMC 21119 (Psychrobacter sp. PAMC 21119); experiment: crystal structure; X-ray, molecular replacement; Ps_cOTC at 2.6 Å (0.1 M Tris-HCl pH 8.1, 1.3 M lithium sulfate), Ps_aOTC at 2.2 Å (0.1 M sodium acetate:HCl pH 4.6, 1 M ammonium citrate dibasic)
[6] = molecular target: anabolic ornithine carbamoyltransferase from Psychrobacter sp. PAMC 21119 (Psychrobacter sp. PAMC 21119); experiment: AUC; sedimentation velocity, 20 mM Tris-HCl pH 8.0, 200 mM NaCl, 20°C, 42,000 RPM, SEDFIT
[7] = molecular target: anabolic ornithine carbamoyltransferase from Psychrobacter sp. PAMC 21119 (Psychrobacter sp. PAMC 21119); experiment: SEC; Superdex 200 10/300 GL, 20 mM Tris-HCl pH 8.0, NaCl 300, 500 and 1,000 mM, protein 1 mg/mL, column calibrated with standards
[8] = molecular target: anabolic ornithine carbamoyltransferase from Psychrobacter sp. PAMC 21119 (Psychrobacter sp. PAMC 21119); experiment: crystal structure; X-ray, molecular replacement; Ps_cOTC at 2.6 Å (0.1 M Tris-HCl pH 8.1, 1.3 M lithium sulfate), Ps_aOTC at 2.2 Å (0.1 M sodium acetate:HCl pH 4.6, 1 M ammonium citrate dibasic)
Ps_aOTC [9] = molecular target: T2, Ps_aOTC; experiment: label-free thermal shift (Tycho NT.[…], intrinsic fluorescence); type: binding; settings: apo Tm 53.7 ± 0.4 °C; saturating at 20 mM CP; 20 mM Tris-HCl pH 8.0; 15 min incubation at 295 K
Ps_cOTC [10] = molecular target: T1, Ps_cOTC; experiment: as above; type: binding; settings: apo Tm 71.9 ± 0.0 °C; up to 50 mM CP; 20 mM Tris-HCl pH 8.0; 15 min incubation at 295 K

T2 sequence (A0ACD6BAY5 entry or part of it): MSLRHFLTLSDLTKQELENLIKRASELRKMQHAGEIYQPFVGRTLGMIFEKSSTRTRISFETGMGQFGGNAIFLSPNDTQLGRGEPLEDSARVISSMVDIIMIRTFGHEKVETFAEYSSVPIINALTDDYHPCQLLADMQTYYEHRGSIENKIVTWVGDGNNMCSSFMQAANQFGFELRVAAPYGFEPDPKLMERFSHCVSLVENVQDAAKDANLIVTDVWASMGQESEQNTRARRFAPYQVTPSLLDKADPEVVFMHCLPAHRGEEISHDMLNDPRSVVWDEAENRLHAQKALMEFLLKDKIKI

Question: How did the thermal shift (Ps_cOTC [1]) turn out when `CCC[C@H](N)C(=O)O` [NVA, l-norvaline] was run?
Answer: following CP binding, NVA can bind to Ps_cOTC and Ps_aOTC

Question: And the thermal shift (Ps_aOTC [2])?
Answer: following CP binding, NVA can bind to Ps_cOTC and Ps_aOTC

Question: “catabolic ornithine carbamoyltransferase from Psychrobacter sp. PAMC 21119 (enzyme)” was tested. Which stoichiometry N [3] did it give?
Answer: 3

Question: And the stoichiometry N [4]?
Answer: 3

Question: And the stoichiometry N [5]?
Answer: 3

Question: Which stoichiometry N [6] does the source give for “anabolic ornithine carbamoyltransferase from Psychrobacter sp. PAMC 21119 (enzyme)” here?
Answer: 3

Question: And the stoichiometry N [7]?
Answer: 3

Question: And the stoichiometry N [8]?
Answer: 3

Question: With `NC(=O)OP(=O)(O)O` [CP, carbamoyl phosphate] as the compound, how does the ΔT (Ps_aOTC [9]) read?
Answer: 6.5 °C

Question: What about the ΔT (Ps_cOTC [10]) of the same compound?
Answer: 1.3 °C
